T1: Human TROP2-Biotin (human, UniProt P09758 27-274, biotinylated (site not stated))
T1 construct: The text calls the captured antigens 'biotinylated peptides'
T1 sequence (looked up): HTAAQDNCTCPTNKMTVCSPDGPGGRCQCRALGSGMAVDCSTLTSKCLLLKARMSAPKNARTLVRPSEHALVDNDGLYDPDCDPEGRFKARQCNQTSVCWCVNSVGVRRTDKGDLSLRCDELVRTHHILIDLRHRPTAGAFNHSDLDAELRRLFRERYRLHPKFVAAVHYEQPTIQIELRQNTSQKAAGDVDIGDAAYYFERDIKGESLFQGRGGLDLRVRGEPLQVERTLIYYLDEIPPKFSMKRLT

B1: TROP2 polypeptide complex Ab-3 (bispecific antibody)
light: DIQLTQSPSSLSASVGDRVSITCKASQDVSIAVAWYQQKPGKAPKLLIYSASYRYTGVPDRFSGSGSGTDFTLTISSLQPEDFAVYYCQQHYITPLTFGAGTKVEIKRTVAAPSVFIFPPSDEQLKSGTASVVCLLNNFYPREAKVQWKVDNALQSGNSQESVTEQDSKDSTYSLSSTLTLSKADYEKHKVYACEVTHQGLSSPVTKSFNRGEC
heavy: QTVVTQEPSLTVSPGGTVTLTCRSSTGAVTTSNYANWVQQKPGQAPRGLIGGTNKRAPGTPARFSGSLLGGKAALTLSGVQPEDEAEYYCALWYSNLWVFGGGTKLTVLGGGGSGGGGSGGGGSEVQLVESGGGLVQPGGSLKLSCAASGFTFNTYAMNWVRQAPGKGLEWVARIRSKYNNYATYYADSVKDRFTISRDDSKNTAYLQMNNLKTEDTAVYYCVRHGNFGNSYVSWFAYWGQGTLVTVSSGGGGSQVQLQQSGSELKKPGASVKVSCKASGYTFTNYGMNWVKQAPGQGLKWMGWINTYTGEPTYTDDFKGRFAFSLDTSVSTAYLQISSLKADDTAVYFCARGGFGSSYWYFDVWGQGSLVTVSSASTKGPSVFPLAPSSKSTSGGTAALGCLVKDYFPEPVTVSWNSGALTSGVHTFPAVLQSSGLYSLSSVVTVPSSSLGTQTYICNVNHKPSNTKVDKKVEPKSC
notes: Anti-CD3 scFv fused to the N-terminus of the anti-TROP2 Fab heavy chain
B2: TROP2 TCE polypeptide complex Ab-1 (bispecific antibody)
light: B1 light
heavy: not shown
notes: as for B1
B3: Ab-2 (bispecific antibody)
light: not shown
heavy: QVQLQQSGSELKKPGASVKVSCKASGYTFTNYGMNWVKQAPGQGLKWMGWINTYTGEPTYTDDFKGRFAFSLDTSVSTAYLQISSLKADDTAVYFCARGGFGSSYWYFDVWGQGSLVTVSSASTKGPSVFPLAPSSKSTSGGTAALGCLVKDYFPEPVTVSWNSGALTSGVHTFPAVLQSSGLYSLSSVVTVPSSSLGTQTYICNVNHKPSNTKVDKKVEPKSC
notes: Anti-CD3 scFv fused to the N-terminus of the anti-TROP2 Fab light chain

Legend:
Human TROP2-Biotin [1] = molecular target: T1, Human TROP2-Biotin; test: BLI (Octet): 10 nM TROP2-biotin loaded on sensor, Ab-3 at 6.25-50 nM, pH 7.4
Human TROP2-Biotin [2] = molecular target: T1, Human TROP2-Biotin; test: ELISA; 1 nM Trop2-biotin immobilized (captured on neutravidin-coated plate), Ab-3 titrated, bound complex detected with a secondary antibody, OD 450 nm
Text: A secondary antibody was used to detect bound polypeptide complex.

Human TROP2-Biotin [3] = molecular target: T1, Human TROP2-Biotin; test: BLI (Octet): 10 nM Human TROP2-Biotin loaded on sensor, Ab at 6.25-50 nM, pH 7.4
Human TROP2-Biotin [4] = molecular target: T1, Human TROP2-Biotin; test: TROP2 ELISA; TROP2-biotin captured on neutravidin-coated plate, antibody titrated, detected with a secondary antibody, OD 450 nm
Text: A secondary antibody was used to detect bound polypeptide complex. A secondary antibody was used to detect bound polypeptide complex.

Binder | Kd (Human TROP2-Biotin [1]) | koff (Human TROP2-Biotin [1]) | kon (Human TROP2-Biotin [1]) | EC50 (Human TROP2-Biotin [2]) | Kd (Human TROP2-Biotin [3]) | EC50 (Human TROP2-Biotin [4])
B1 | 1.12 nM | 0.000223 s⁻¹ | 199000 M⁻¹ s⁻¹ | 0.17 nM | – | –
B2 | – | – | – | – | 0.466 nM | 0.08 nM
B3 | – | – | – | – | 0.687 nM | 0.09 nM

Reference: patent publication US20240092931A1 (JANUX THERAPEUTICS, published 2024)
